Broadly, the stoichiometry N is the number of molecules, sites or subunits per partner or assembly.

The values that follow come from article PMC12094035.

The target in the test is human γ-tubulin ring complex (γ-TuRC), the reconstituted complex without NEDD1 (human) (UniProt P23258). As to the kind of experiment: cryo-EM structure; NEDD1-containing rec-γ-TuRC; free particles in micrographs of Aher et al. (2024), processed anew; consensus map 4.7 Å; model from AlphaFold 3 predictions fitted to the map and refined, side chains trimmed to β-carbons.

Turning to “neural precursor cell expressed, developmentally downregulated 1 (NEDD1), full length, in the reconstituted human γ-TuRC (from UniProt Q8NHV4 1-660) (natural protein)”, the stoichiometry N was 4.
